Test results: paper PMC4911930
One block for each substance: values may come before it.

Key:
[1] = molecular target: Spt16 (human (endogenous in HeLa and U2OS)) (UniProt Q9Y5B9)
Spt16 952–955A (human) = Spt16 952–955A (human) (UniProt Q9Y5B9); experiment: pull-down; GST-tagged Spt16 fragments and alanine mutants as bait, CENP-T^HFD/-W as prey, GST alone as control; Coomassie gel; also with 1 M NaCl for 926–1047 (Supplemental Fig. S5a)
Spt16 956–960A (human) = Spt16 956–960A (human) (UniProt Q9Y5B9); experiment: as above
CENP-T^HFD/-W complex = CENP-T^HFD/-W complex (UniProt Q5EE01); experiment: ITC; Spt16-CTD (amino acids 926–965; 2.2 mM) injected into 200 µL of 150 µM CENP-T/-W, human H2A/H2B or CENP S/X; 20°C; 20 mM Tris pH 7.5, 0.2 M NaCl; single-site model for CENP-T/-W, two-site model for H2A/H2B

Chain of CENP-T (Q96BT3 whole entry): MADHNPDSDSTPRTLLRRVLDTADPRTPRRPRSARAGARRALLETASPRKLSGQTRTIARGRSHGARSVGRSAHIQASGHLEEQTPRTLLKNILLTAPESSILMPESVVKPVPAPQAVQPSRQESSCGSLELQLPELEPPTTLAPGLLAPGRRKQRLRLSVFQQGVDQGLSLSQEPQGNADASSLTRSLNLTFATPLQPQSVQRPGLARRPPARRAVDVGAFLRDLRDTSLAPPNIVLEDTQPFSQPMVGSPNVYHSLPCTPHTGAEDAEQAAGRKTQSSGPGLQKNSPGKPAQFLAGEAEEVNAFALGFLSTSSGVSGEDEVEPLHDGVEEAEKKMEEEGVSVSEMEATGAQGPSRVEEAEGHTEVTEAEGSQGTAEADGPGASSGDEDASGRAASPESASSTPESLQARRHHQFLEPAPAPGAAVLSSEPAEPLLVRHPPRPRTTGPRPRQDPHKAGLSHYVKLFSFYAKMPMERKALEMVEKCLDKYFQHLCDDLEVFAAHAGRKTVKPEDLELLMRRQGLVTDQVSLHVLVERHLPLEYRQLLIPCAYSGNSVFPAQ

accumulation of endogenous CENP-T at the LacO locus in cells transfected with eGFP-LacI-Spt16 (immunofluorescence after 24 h) [1]: 10 % of cells
Substance: CENP-T (from UniProt Q96BT3 1-561) (natural protein)

percent reduction of binding against unmutated Spt16 926–965 (Spt16 952–955A (human)): < 40%
percent reduction of binding against unmutated Spt16 926–965 (Spt16 956–960A (human)): < 60%
Substance: CENP-T^HFD/-W complex (from UniProt Q5EE01 1-88)

Kd (CENP-T^HFD/-W complex): 6.3 µM
Substance: Spt16-CTD (Spt16 amino acids 926–965) (from UniProt Q9Y5B9 926-965) (domain or fragment)
